Where two headings read alike, the source gives them in different places.
Tests used:
Test in all cases: cell-based or functional assay
human GLP-1 receptor [1] = biological target: T1, human GLP-1 receptor (human, UniProt P43220 24-463)
Glucagon receptor [2] = biological target: Glucagon receptor
[3] = biological target: FGFR/β-Klotho receptor complex
human GLP-1 receptor [4] = biological target: T1, human GLP-1 receptor; remark: listed apart in the source
Glucagon receptor [5] = biological target: Glucagon receptor; remark: listed apart in the source

Binder | GLP-1R agonist activity EC50 (luciferase reporter) (human GLP-1 receptor [1]) | GCGR agonist activity EC50 (luciferase reporter) (Glucagon receptor [2]) | FGF21 activity EC50 (luciferase reporter) [3] | GLP-1R agonist activity EC50 (luciferase reporter) (human GLP-1 receptor [4]) | GCGR agonist activity EC50 (luciferase reporter) (Glucagon receptor [5])
C627 L12F10L9M6 (Fc fusion) HSQGTFTSDYSKQMDSQRAQDFVQWLMNGGPSSGAPPPSGGGGAGGGGAGGGGAAESKYGPPCPPCPAPEAAGGPSVFLFPPKPKDTLMISRTPEVTCVVVDVSQEDPEVQFNWYVDGVEVHNAKTKPREEQFASTYRVVSVLTVLHQDWLNGKEYKCKVSNKGLPSSIEKTISKAKGQPREPQVYTLPPSQEEMTKNQVSLTCLVKGFYPSDIAVEWESNGQPENNYKTTPPVLDSDGSFFLYSRLTVDKSRWQEGNVFSCSVMHEALHNHYTQKSLSLSLGGGGGSGGGGSGGGGSHPIPDSSPLLQFGGQVRQRYLYTDDAQQTEAHLEIREDGTVGGAADQSPESLLQLKALKPGVIQILGVKTSRFLCQRPDGALYGSLHFDPEACSFRERLLEDGYNVYQSEAHGLPLHCPGNKSPHRDPAPRGPCRFLPLPGLPPALPEPPGILAPQPPDVGSSDPLSMVEPSQGRSPSYAS | 1.48 nM | 1.69 nM | 1.11 nM |  | 
C627L13F10 (Fc fusion) HSQGTFTSDYSKQMDSQRAQDFVQWLMNGGPSSGAPPPSGGGGAGGGGAGGGGAAESKYGPPCPPCPAPEAAGGPSVFLFPPKPKDTLMISRTPEVTCVVVDVSQEDPEVQFNWYVDGVEVHNAKTKPREEQFASTYRVVSVLTVLHQDWLNGKEYKCKVSNKGLPSSIEKTISKAKGQPREPQVYTLPPSQEEMTKNQVSLTCLVKGFYPSDIAVEWESNGQPENNYKTTPPVLDSDGSFFLYSRLTVDKSRWQEGNVFSCSVMHEALHNHYTQKSLSLSLG |  |  |  | 1.41 nM | 1.27 nM
C788L1F5 (Fc fusion) HSQGTFTSDYSKQMDSQRAQDFVQWLMNTKRNRNNIAGGGGSERKCCVECPPCPAPPVAGPSVFLFPPKPKDTLMISRTPEVTCVVVDVSHEDPEVQFNWYVDGVEVHNAKTKPREEQFNSTFRVVSVLTVVHQDWLNGKEYKCKVSNKGLPSSIEKTISKTKGQPREPQVYTLPPSREEMTKNQVSLTCLVKGFYPSDIAVEWESNGQPENNYKTTPPMLDSDGSFFLYSKLTVDKSRWQQGNVFSCSVMHEALHNHYTQKSLSLSPG |  |  |  | 18.5 nM | 26.7 nM
C225L10F10 (Fc fusion) HSQGTFTSDYSKYLDERAAQDFVQWLMNTGPSSGAPPPSGGGGAGGGGAGGGGAESKYGPPCPPCPAPEAAGGPSVFLFPPKPKDTLMISRTPEVTCVVVDVSQEDPEVQFNWYVDGVEVHNAKTKPREEQFASTYRVVSVLTVLHQDWLNGKEYKCKVSNKGLPSSIEKTISKAKGQPREPQVYTLPPSQEEMTKNQVSLTCLVKGFYPSDIAVEWESNGQPENNYKTTPPVLDSDGSFFLYSRLTVDKSRWQEGNVFSCSVMHEALHNHYTQKSLSLSLG |  |  |  | 1.47 nM | 1.39 nM
C711 L13F5L10M4 (Fc fusion) HSQGTFTSDYSKYLDSQAAQDFVQWLMNTKRNRNNIAGGGGSGGGGSGGGGSAERKCCVECPPCPAPPVAGPSVFLFPPKPKDTLMISRTPEVTCVVVDVSHEDPEVQFNWYVDGVEVHNAKTKPREEQFNSTFRVVSVLTVVHQDWLNGKEYKCKVSNKGLPSSIEKTISKTKGQPREPQVYTLPPSREEMTKNQVSLTCLVKGFYPSDIAVEWESNGQPENNYKTTPPMLDSDGSFFLYSKLTVDKSRWQQGNVFSCSVMHEALHNHYTQKSLSLSPGGGGGAGGGGAGGGGAHPIPDSSPLLQFGGQVRQRYLYTDDAQQTEAHLEIREDGTVGGAADQSPESLLQLKALKPGVIQILGVKTSRFLCQRPDGALYGSLHFDPEACSFRERLLEDGYNVYQSEAHGLPLHCPGNKSPHRDPAPRGPCRFLPLPGLPPALPEPPGILAPQPPDVGSSDPLAMVGGSQGRSPSYES | 10.8 nM | 9.55 nM | 0.75 nM |  | 
C788 L1F5L5M5 (Fc fusion) HSQGTFTSDYSKQMDSQRAQDFVQWLMNTKRNRNNIAGGGGSERKCCVECPPCPAPPVAGPSVFLFPPKPKDTLMISRTPEVTCVVVDVSHEDPEVQFNWYVDGVEVHNAKTKPREEQFNSTFRVVSVLTVVHQDWLNGKEYKCKVSNKGLPSSIEKTISKTKGQPREPQVYTLPPSREEMTKNQVSLTCLVKGFYPSDIAVEWESNGQPENNYKTTPPMLDSDGSFFLYSKLTVDKSRWQQGNVFSCSVMHEALHNHYTQKSLSLSPGGGGGSGGGGSHPIPDSSPLLQFGGQVRQRYLYTDDAQQTEAHLEIREDGTVGGAEDQSPESLLQLKALKPGVIQILGVKTSRFLCQRPDGALYGSLHFDPEACSFRERLLEDGYNVYQSEAHGLPLHCPGNKSPHRDPAPRGPCRFLPLPGLPPALPEPPGILAPQPPDVGSSDPLSMVGGSQGRSPSYES | 10.6 nM | 7.64 nM | 0.88 nM |  | 

Reference: patent US20210070829A1 (ZHEJIANG DOER BIOLOGICS, published 2021)
